Consider one molecule from US20240132624A1.

Assay [1] has as its target human FcRn/b2M (human) (UniProt P61769). Briefly: SPR pH 6.0.
Assay [2] shares this target. Briefly: SPR pH 7.4.
The target is the same in assay [3]. Briefly: SPR; pH 7.4 vs pH 6.0.

human FcRn/b2M (human), sequence (chain, as listed by the source limits assumed, chain 1 of 2): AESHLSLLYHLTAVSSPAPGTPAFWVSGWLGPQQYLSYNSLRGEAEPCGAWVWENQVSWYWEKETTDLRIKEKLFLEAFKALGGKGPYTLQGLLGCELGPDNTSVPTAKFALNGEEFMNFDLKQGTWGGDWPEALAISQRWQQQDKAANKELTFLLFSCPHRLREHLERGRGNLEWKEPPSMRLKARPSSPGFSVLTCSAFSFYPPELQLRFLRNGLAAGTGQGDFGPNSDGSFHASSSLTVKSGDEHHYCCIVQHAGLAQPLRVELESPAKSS
human FcRn/b2M (human), sequence (P61769 21-119 limits assumed, chain 2 of 2): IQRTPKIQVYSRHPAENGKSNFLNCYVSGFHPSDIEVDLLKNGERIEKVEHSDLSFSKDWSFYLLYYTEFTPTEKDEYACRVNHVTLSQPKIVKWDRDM

B1: T0263018B11 bivalent (VHH, part only; not given: linker, not shown: small tags and cut ends)
chain, part: EVQLVESGGGVVQPGGSLRLSCAASGFTFSSYAMYWVRQAPGKGLEWVSAISSGGGSTDYADSVKGRFTISRDNSKNTLYLQMNSLRPEDTALYYCAADTLYTSLTWYSYWGQGTLVTVSSEVQLVESGGGVVQPGGSLRLSCAASGFTFSSYAMYWVRQAPGKGLEWVSAISSGGGSTDYADSVKGRFTISRDNSKNTLYLQMNSLRPEDTALYYCAADTLYTSLTWYSYWGQGTLVTVSS
In the case of B1, the dissociation constant (Kd) with human FcRn/b2M (human) [1] amounted to 19 nM; with human FcRn/b2M (human) [2], 1000 nM. Besides, in the assay with human FcRn/b2M (human) [3], the KD ratio pH 7.4/6.0 is 54.
